Reference: patent US20180272008A1
Ends that are not written are not given here.

Biological target: IgE of patient serum 3 (human)
Experiment: ELISA: serum IgE captured on an anti-human IgE coated plate, epitope 2 peptide (FITC-tagged) titrated, fluorescence (RFU)

EC50 (read off the curve): 10 µM
Binder: ERDPYSPSQDPYSPS (also: FITC tag, site not given here) [FITC-tagged epitope 2 peptide of Ara h 2]
